Results: US20240059796A1 (SHENZHEN MAJORY BIOTECHNOLOGY, published 2024)

B1: bifunctional antibody CT111 (bispecific antibody, human IgG4 S228P, kappa)
light: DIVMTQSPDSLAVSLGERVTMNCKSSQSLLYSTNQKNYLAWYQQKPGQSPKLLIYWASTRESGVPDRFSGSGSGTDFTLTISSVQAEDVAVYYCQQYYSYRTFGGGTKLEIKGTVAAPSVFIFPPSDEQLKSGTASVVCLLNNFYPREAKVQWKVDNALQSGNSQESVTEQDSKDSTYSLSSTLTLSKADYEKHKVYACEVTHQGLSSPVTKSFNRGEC
heavy: QVQLQQSGPEVVKPGASVKMSCKASGYTFTSYVIHWVRQKPGQGLDWIGYINPYNDGTDYDEKFKGKATLTSDTSTSTAYMELSSLRSEDTAVYYCAREKDNYATGAWFAYWGQGTLVTVSSASTKGPSVFPLAPCSRSTSESTAALGCLVKDYFPEPVTVSWNSGALTSGVHTFPAVLQSSGLYSLSSVVTVPSSSLGTKTYTCNVDHKPSNTKVDKRVESKYGPPCPPCPAPEFLGGPSVFLFPPKPKDTLMISRTPEVTCVVVDVSQEDPEVQFNWYVDGVEVHNAKTKPREEQFNSTYRVVSVLTVLHQDWLNGKEYKCKVSNKGLPSSIEKTISKAKGQPREPQVYTLPPCQEEMTKNQVSLWCLVKGFYPSDIAVEWESNGQPENNYKTTPPVLDSDGSFFLYSALTVDKSRWQEGNVFSCSVMHEALHNHYTQKSLSLSLGK
chain: EVQLVESGGGVVQPGRSLRLSCAASGFTFSSYGMHWVRQAPGKELEWVAVISYDGSIKYYADSVKGRFTISRDNSKNTLYLQMNSLRAEDTAVYYCARTGEYSGYDTDPQYSWGQGTTVTVSSGGGGSGGGGSGGGGSEIVLTQSPSSLSASVGDRVTITCRASQGIGDDLGWYQQKPGKAPILLIYGTSTLQSGVPSRFSGSGSGTDFTLTINSLQPEDFATYYCLQDSNYPLTFGGGTRLEIKYGPPCPPCPAPEFLGGPSVFLFPPKPKDTLMISRTPEVTCVVVDVSQEDPEVQFNWYVDGVEVHNAKTKPREEQFNSTYRVVSVLTVLHQDWLNGKEYKCKVSNKGLPSSIEKTISKAKGQPREPQVCTLPPSQEEMTKNQVSLSCAVKGFYPSDIAVEWESNGQPENNYKTTPPVLDSDGSFKLVSRLTVDKSRWQEGNVFSCSVMHEALHNHYTQKSLSLSLGK
B2: bifunctional antibody CT112 (bispecific antibody, human IgG4 S228P, kappa)
light: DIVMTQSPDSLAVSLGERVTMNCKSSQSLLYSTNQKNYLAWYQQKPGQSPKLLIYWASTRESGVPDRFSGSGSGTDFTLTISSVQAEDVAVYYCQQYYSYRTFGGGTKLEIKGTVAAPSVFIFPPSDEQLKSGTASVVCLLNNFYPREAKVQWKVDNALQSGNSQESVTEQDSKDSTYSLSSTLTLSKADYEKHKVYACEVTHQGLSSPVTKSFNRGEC
heavy: B1 heavy
chain 1: EVQLVESGGGVVQPGRSLRLSCAASGFTFSSYGMHWVRQAPGKELEWVAVISYDGSIKYYADSVKGRFTISRDNSKNTLYLQMNSLRAEDTAVYYCARTGEYSGYDTDPQYSWGQGTTVTVSGGSGTVAAPSVFIFPPSDEQLKSGTASVVCLLNNFYPREAKVQWKVDNALQSGNSQESVTEQDSKDSTYSLSSTLTLSKADYEKHKVYACEVTHQGLSSPVTKSFNRGECSKYGPPCPPCPAPEFLGGPSVFLFPPKPKDTLMISRTPEVTCVVVDVSQEDPEVQFNWYVDGVEVHNAKTKPREEQFNSTYRVVSVLTVLHQDWLNGKEYKCKVSNKGLPSSIEKTISKAKGQPREPQVCTLPPSQEEMTKNQVSLSCAVKGFYPSDIAVEWESNGQPENNYKTTPPVLDSDGSFKLVSRLTVDKSRWQEGNVFSCSVMHEALHNHYTQKSLSLSLGK
chain 2: EIVLTQSPSSLSASVGDRVTITCRSSQGIGDDLGWYQQKPGKAPILLIYGTSTLQSGVPSRFSGSGSGTDFTLTINSLQPEDFATYYCLQDSNYPLTFGGGTRLEIKGSSASTKGPSVFPLAPCSRSTSESTAALGCLVKDYFPEPVTVSWNSGALTSGVHTFPAVLQSSGLYSLSSVVTVPSSSLGTKTYTCNVDHKPSNTKVDKRVES
notes: also called IgG CrossMab
B3: anti-TGF-β1 antibody CAT192 (antibody, human IgG4, V domains shown)
VH: EVQLVESGGGVVQPGRSLRLSCAASGFTFSSYGMHWVRQAPGKELEWVAVISYDGSIKYYADSVKGRFTISRDNSKNTLYLQMNSLRAEDTAVYYCARTGEYSGYDTDPQYSWGQGTTVTVSS
VL: EIVLTQSPSSLSASVGDRVTITCRSSQGIGDDLGWYQQKPGKAPILLIYGTSTLQSGVPSRFSGSGSGTDFTLTINSLQPEDFATYYCLQDSNYPLTFGGGTRLEIK
notes: The background section calls CAT192 a human IgG4 monoclonal antibody

Legend:
[1] = biological target: TGF-β1 (inducer of the TGF-β/Smad reporter signal) (UniProt P01137 279-390, limits assumed); test: cell-based or functional assay
[2] = biological target: T1, human TGF-β1 (immobilised on the CM5 chip, Biacore) (human, UniProt P01137 279-390); test: SPR (Biacore), human TGF-β1 amine-coupled to CM5, antibody 250 nM, 1:1 fit
T1 construct: also called antigen TGF-β1
Protocol: The affinity constants of CT101, CT102, CT111, and CT112 with human TGF-β1 were measured with a Biacore molecular interaction meter. HBS-EP served as buffer, human TGF-β1 was immobilized on the surface of CM5 chip by Bicaore standard amino coupling. Binding of antibodies CT101, CT102, CT111, and CT112 to human TGF-β1 was performed, where the concentration of antibodies CT101, CT102, CT111, and CT112 was 250 nM, the flow rate was 30 μl/min, the binding duration was 120 s, and the dissociation duration was 880 s. The chip was regenerated by using 10 mM glycine, where PH was 2.7, the flow rate was 30 μl/min, and the duration was 120 s. The affinity constants were obtained by data fitting analysis with a 1:1 model. Data was collected with Biacore Control 2.0 software and analyzed using Biacore T200 Evaluation 2.0 software. The kinetics parameters of antibodies CT101, CT102, CT111, and CT112 binding to human TGF-β1 are shown in Table 2, and the test results of specific kinetic parameters of antibodies CT101, CT102, CT111, and CT112 binding to human TGF-β1 are shown in FIG. 7.

[3] = biological target: T2, fusion protein TGF-β1-His (human, UniProt P01137 279-390); test: indirect ELISA, TGF-β1-His coated
T2 construct: 118 aa: a 112-residue TGF-β1 segment with a C-terminal His6 tag
Protocol: (§1) The ELISA plate was coated with TGF-β1-His and incubated at 37° C. for 3 hours. After rinsing the plate, 1% BSA was used for blocking for one hour. After rinsing the plate, serially diluted antibody was added and incubated at 37° C. for 60 minutes. After rinsing the plate, enzyme-labeled donkey anti-human IgG secondary antibody working solution was added and incubated at 37° C. for 30 minutes. After rinsing the plate, TMB developing solution was added to develop for 5 minutes in a dark place, and termination solution was added to terminate the chromogenic reaction. The ELISA plate was immediately put into an ELISA reader, and the optical wavelength of 450 nm was selected to read the OD value of each well of the ELISA plate. The data was analyzed and processed with SoftMax Pro software.

[4] = biological target: T1, human TGF-β1 (immobilised on the CM5 …); test: SPR (Biacore), human TGF-β1 amine-coupled to CM5, 1:1 fit
Protocol: The affinity constants of CT101 with human TGF-β1 were measured with a Biacore system for molecular interaction. HBS-EP served as buffer, human TGF-β1 was immobilized on the surface of CM5 chip by Bicaore standard amino coupling. Binding of antibody CT101 to human TGF-β1 was performed, where the concentration of antibody CT101 was 8-250 nM (2 fold dilution), the flow rate was 30 μl/min, the binding duration was 120 s, and the dissociation duration was 880 s. The chip was regenerated using 10 mM glycine, where PH was 2.7, the flow rate was 30 μl/min, and the duration was 120 s. The affinity constants were obtained by data fitting analysis with a 1:1 model. Data was collected with Biacore Control 2.0 software and analyzed using Biacore T200 Evaluation 2.0 software. The kinetics parameters of antibodies CT102 and CAT192 binding to human TGF-β1 are shown in Table 2, and the test results of specific kinetic parameters of antibody CT101 to human TGF-β1 are shown in FIG. 21.

[5] = biological target: T2, fusion protein TGF-β1-His; test: competitive ELISA, TGF-β1-His coated; competitor human TGFβRII-ECD-Fc-biotin 0.1 µg/ml
Protocol: (§2) The ELISA plate was coated with TGF-β1-His and incubated at 37° C. for 3 hours. After rinsing the plate, 1% BSA was used for blocking at 37° C. for one hour. After rinsing the plate, serially diluted antibody and human TGFβRII-ECD-Fc-biotin (final concentration 0.1 μg/ml) were added and incubated at room temperature for 2 hours. After rinsing the plate, HRP labeled streptavidin SA-HRP (1:2000) working solution was added and incubated at 37° C. for 30 minutes. After rinsing the plate, TMB developing solution was added to develop for 5 min in a dark place, and termination solution was added to terminate the chromogenic reaction. The ELISA plate was immediately put into an ELISA reader, and the optical wavelength of 450 nm was selected to read the OD value of each well of the ELISA plate. The data was analyzed and processed with SoftMax Pro software.

[6] = biological target: T2, fusion protein TGF-β1-His; test: indirect ELISA, plate coated with TGF-β1-His, detection with enzyme-labeled anti-human IgG
Protocol: as §1

[7] = biological target: T2, fusion protein TGF-β1-His; test: competitive ELISA, plate coated with TGF-β1-His, antibody titrated against human TGFβRII-ECD-Fc-biotin (0.1 µg/ml), detection with SA-HRP
Protocol: as §2

T1 sequence (P01137 279-390 limits assumed): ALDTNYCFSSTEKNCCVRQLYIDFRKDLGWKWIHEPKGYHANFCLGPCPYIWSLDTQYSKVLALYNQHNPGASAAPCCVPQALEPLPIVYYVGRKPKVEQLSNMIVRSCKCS
Sequence of TGF-β1 (inducer of the TGF-β/Smad reporter signal) (P01137 279-390 limits assumed): as above
T2 sequence (P01137 other isoform, or with tags, fused parts or gaps limits assumed): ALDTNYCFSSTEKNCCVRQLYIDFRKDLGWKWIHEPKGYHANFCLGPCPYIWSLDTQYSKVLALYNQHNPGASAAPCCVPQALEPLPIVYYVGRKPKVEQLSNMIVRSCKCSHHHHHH

Row | Binder | IC50, TGF-β/Smad luciferase reporter in HEK293 cells [1] [nM] | Kd [2] [nM] | koff [2] [s⁻¹] | kon [2] [M⁻¹ s⁻¹] | IC50, TGF-β/Smad luciferase reporter in HEK293-CD4 cells [1] [nM] | EC50 [3] [nM] | Kd [4] [nM] | koff [4] [s⁻¹] | kon [4] [M⁻¹ s⁻¹] | IC50 [5] [nM] | EC50 (read off the curve) [6] [nM] | IC50 (read off the curve) [7] [nM]
1 | B1 | ~0.8 | – | – | – | – | – | – | – | – | – | – | –
2 | B2 | ~1 | 1.97 | 5.9e-05 | 30000 | – | – | – | – | – | – | – | –
3 | B3 | ~0.25 | – | – | – | 0.25 | 0.0845 | 0.8 | 2.4e-05 | 30000 | 0.105 | ~0.08 | ~0.09
